Experimental data taken from US20080267950A1 (BOARD OF TRUSTEES OF THE UNIVERSITY OF ARKANSAS, published 2008).

Legend:
[1] = biological target: T1, LRP5 in C2C12 cell lysate (mouse, UniProt Q91VN0 31-1614); test: co-immunoprecipitation: BMPR immunoprecipitated from C2C12 lysate, blotted with anti-LRP5
T1 construct: also called LDL receptor-related protein 5

[2] = biological target: T2, LRP6 in C2C12 cell lysate (mouse, UniProt O88572 20-1613); test: co-immunoprecipitation: BMPR immunoprecipitated from C2C12 lysate, blotted with anti-LRP6
T2 construct: also called LDL receptor-related protein 6
T2 sequence (O88572 20-1613 limits assumed): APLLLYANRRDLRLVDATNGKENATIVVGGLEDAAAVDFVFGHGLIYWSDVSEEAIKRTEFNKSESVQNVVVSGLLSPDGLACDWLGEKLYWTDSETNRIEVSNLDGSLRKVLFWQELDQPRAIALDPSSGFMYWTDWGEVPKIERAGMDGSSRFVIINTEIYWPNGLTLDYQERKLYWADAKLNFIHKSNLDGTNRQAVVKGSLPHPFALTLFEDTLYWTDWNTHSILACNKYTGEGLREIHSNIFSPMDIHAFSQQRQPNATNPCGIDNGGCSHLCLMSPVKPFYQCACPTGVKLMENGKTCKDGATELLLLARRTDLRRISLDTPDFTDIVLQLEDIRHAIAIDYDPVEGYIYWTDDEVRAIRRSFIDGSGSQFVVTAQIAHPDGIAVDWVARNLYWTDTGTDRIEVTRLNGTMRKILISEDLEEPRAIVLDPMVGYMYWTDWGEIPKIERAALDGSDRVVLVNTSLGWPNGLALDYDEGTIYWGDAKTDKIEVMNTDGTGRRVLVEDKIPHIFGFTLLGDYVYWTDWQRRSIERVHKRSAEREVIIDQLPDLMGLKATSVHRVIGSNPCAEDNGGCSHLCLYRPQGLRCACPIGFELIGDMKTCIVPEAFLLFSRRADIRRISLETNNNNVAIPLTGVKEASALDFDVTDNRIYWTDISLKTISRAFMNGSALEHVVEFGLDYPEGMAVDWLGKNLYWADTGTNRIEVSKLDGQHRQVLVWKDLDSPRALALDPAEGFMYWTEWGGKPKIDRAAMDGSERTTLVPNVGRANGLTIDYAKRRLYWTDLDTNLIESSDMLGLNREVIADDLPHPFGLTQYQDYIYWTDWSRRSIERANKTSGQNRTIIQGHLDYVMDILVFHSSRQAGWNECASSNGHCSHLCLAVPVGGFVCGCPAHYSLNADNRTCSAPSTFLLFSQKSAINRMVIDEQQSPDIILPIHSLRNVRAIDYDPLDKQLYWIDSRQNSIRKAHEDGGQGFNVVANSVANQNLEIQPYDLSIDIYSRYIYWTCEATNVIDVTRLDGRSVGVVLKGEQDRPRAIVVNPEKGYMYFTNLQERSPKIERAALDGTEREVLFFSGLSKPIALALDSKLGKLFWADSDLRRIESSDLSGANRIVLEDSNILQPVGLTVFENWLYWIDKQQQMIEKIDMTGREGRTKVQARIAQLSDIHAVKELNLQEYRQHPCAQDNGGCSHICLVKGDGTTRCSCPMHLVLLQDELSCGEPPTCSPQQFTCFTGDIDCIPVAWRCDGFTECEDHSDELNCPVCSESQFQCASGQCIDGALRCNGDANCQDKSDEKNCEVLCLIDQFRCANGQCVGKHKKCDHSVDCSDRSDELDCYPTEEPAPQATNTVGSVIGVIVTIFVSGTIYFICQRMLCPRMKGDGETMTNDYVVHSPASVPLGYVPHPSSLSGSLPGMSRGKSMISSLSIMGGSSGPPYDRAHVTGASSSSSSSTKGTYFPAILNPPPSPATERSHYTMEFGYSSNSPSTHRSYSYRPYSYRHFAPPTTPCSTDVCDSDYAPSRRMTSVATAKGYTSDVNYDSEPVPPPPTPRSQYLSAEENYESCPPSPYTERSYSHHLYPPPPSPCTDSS

T1 sequence (Q91VN0 31-1614 limits assumed): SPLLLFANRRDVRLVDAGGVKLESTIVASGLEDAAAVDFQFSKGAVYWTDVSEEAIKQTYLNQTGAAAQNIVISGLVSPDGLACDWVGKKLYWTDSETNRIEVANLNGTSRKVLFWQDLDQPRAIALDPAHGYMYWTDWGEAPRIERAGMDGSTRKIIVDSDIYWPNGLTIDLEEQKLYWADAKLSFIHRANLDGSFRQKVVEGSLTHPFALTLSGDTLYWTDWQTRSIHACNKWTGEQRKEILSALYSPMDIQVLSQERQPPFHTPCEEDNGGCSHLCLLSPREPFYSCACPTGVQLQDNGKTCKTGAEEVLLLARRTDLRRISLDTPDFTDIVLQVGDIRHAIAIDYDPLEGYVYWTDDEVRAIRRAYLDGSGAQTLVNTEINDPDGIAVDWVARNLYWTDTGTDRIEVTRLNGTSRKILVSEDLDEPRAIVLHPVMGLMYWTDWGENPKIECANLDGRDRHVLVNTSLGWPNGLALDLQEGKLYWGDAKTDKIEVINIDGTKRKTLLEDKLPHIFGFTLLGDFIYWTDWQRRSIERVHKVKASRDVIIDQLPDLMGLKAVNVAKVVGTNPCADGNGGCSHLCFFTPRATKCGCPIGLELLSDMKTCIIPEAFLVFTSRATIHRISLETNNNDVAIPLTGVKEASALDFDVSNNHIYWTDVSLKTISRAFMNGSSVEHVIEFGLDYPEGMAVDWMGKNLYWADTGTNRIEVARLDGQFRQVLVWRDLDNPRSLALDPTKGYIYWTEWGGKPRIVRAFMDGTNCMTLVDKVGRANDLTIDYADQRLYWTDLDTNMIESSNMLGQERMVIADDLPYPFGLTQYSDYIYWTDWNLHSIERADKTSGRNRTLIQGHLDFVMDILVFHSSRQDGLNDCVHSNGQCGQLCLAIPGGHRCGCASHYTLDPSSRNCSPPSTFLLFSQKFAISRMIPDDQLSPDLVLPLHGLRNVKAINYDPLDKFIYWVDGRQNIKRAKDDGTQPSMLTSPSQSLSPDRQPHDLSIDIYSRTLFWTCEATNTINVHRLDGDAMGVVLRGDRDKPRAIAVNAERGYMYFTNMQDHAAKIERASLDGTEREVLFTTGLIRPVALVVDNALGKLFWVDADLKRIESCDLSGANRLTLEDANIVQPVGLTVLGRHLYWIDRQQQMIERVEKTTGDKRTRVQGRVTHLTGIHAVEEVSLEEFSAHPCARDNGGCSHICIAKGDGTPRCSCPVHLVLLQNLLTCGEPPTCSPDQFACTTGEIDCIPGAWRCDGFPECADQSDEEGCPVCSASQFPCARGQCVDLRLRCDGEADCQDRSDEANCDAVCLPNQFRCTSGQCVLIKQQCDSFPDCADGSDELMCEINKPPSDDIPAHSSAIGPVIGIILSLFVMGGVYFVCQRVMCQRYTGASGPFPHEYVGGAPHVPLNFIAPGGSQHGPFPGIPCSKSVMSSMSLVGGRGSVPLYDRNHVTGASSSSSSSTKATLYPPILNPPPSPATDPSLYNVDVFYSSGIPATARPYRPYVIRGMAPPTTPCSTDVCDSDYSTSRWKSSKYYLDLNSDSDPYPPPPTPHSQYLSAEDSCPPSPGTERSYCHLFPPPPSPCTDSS

binding result [1]: no binding | binding result [2]: no binding
B1: BMPR-II in C2C12 cell lysate (receptor, mouse, UniProt O35607 27-1038, looked up)
chain: SQNQERLCAFKDPYQQDLGIGESRISHENGTILCSKGSTCYGLWEKSKGDINLVKQGCWSHIGDPQECHYEECVVTTTPPSIQNGTYRFCCCSTDLCNVNFTENFPPPDTTPLSPPHSFNRDETIIIALASVSVLAVLIVALCFGYRMLTGDRKQGLHSMNMMEAAAAEPSLDLDNLKLLELIGRGRYGAVYKGSLDERPVAVKVFSFANRQNFINEKNIYRVPLMEHDNIARFIVGDERLTADGRMEYLLVMEYYPNGSLCKYLSLHTSDWVSSCRLAHSVTRGLAYLHTELPRGDHYKPAISHRDLNSRNVLVKNDGACVISDFGLSMRLTGNRLVRPGEEDNAAISEVGTIRYMAPEVLEGAVNLRDCESALKQVDMYALGLIYWEVFMRCTDLFPGESVPDYQMAFQTEVGNHPTFEDMQVLVSREKQRPKFPEAWKENSLAVRSLKETIEDCWDQDAEARLTAQCAEERMAELMMIWERNKSVSPTVNPMSTAMQNERNLSHNRRVPKIGPYPDYSSSSYIEDSIHHTDSIVKNISSEHSMSSTPLTIGEKNRNSINYERQQAQARIPSPETSVTSLSTNTTTTNTTGLTPSTGMTTISEMPYPDETHLHATNVAQSIGPTPVCLQLTEEDLETNKLDPKEVDKNLKESSDENLMEHSLKQFSGPDPLSSTSSSLLYPLIKLAVEVTGQQDFTQAANGQACLIPDVPPAQIYPLPKQQNLPKRPTSLPLNTKNSTKEPRLKFGNKHKSNLKQVETGVAKMNTINAAEPHVVTVTMNGVAGRSHNVNSHAATTQYANGAVPAGQAANIVAHRSQEMLQNQFIGEDTRLNINSSPDEHEPLLRREQQAGHDEGVLDRLVDRRERPLEGGRTNSNNNNSNPCSEQDILTQGVTSTAADPGPSKPRRAQRPNSLDLSATNILDGSSIQIGESTQDGKSGSGEKIKRRVKTPYSLKRWRPSTWVISTEPLDCEVNNNGSDRAVHSKSSTAVYLAEGGTATTTVSKDIGMNCL
notes: also called BMP-2 receptor
